In publication doi:10.1101/2022.06.20.496707:
Where two headings read alike, the source gives them in different places.

Assays:
[1] = biological target: Serratia NucC (type III-A CRISPR-Cas-associated accessory nuclease of Serratia sp. ATCC 39006) (Serratia sp. ATCC 39006); test: crystal structure
[2] = biological target: Serratia NucC (type III-A CRISPR-Cas-associated accessory nuclease of Serratia sp. ATCC 39006) (Serratia sp. ATCC 39006); test: crystal structure; remark: listed apart in the source

stoichiometry N [1]: 6
stoichiometry N [2]: 6
Substance: Serratia NucC (type III-A CRISPR-Cas-associated accessory nuclease of Serratia sp. ATCC 39006) (enzyme)
